Measured values as given in patent US20100260668A1 (published 2010).

Tests used:
CD-20 = target: T1, CD-20 (UniProt P11836 1-297, limits assumed); assay: flow cytometry on cells carrying the target, 2 ug/mL; parent antibody
T1 construct: whole, on cells
T1 sequence (looked up): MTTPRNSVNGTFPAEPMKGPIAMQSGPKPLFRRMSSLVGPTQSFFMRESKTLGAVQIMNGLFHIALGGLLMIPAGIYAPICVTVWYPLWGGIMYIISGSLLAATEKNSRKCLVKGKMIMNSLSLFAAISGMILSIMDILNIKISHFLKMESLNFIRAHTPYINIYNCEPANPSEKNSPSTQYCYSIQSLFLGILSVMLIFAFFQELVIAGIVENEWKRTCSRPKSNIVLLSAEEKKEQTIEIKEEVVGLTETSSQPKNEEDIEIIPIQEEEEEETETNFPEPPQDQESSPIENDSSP
Method: (§1) Stable cell lines overexpressing a cell-surface antigen of interest or human tumor cell lines were harvested from tissue culture flasks and resuspended in phosphate buffered saline (PBS) containing 5% fetal bovine serum (PBS/FBS). Prior to staining, human tumor cells were incubated on ice with (100 μl) human IgG at 5 μg/ml in PBS/FCS. 1-5×10⁵ cells were incubated with antibody or DVD-Ig (2 μg/mL) in PBS/FBS for 30-60 minutes on ice. […] After 30 minutes incubation on ice, cells were washed twice and resuspended in PBS/FBS. Fluorescence was measured using a Becton Dickinson FACSCalibur (Becton Dickinson, San Jose, Calif.).
(§2) The geometric mean is the n root of the multiplication product of n fluorescent signals (a1×a2×a3 . . . an). With log-transformed data the geometric mean is used to normalize the weighting of the data distribution.

recombinant human HGF = target: T2, recombinant human HGF (human, UniProt P14210 32-728); assay: competition ELISA: antibody co-incubated with 2 nM soluble c-Met Fc on coated HGF (competitor c-Met Fc)
T2 construct: The target there is entered as this HGF; also called hepatocyte growth factor
T2 sequence (P14210 32-728 limits assumed): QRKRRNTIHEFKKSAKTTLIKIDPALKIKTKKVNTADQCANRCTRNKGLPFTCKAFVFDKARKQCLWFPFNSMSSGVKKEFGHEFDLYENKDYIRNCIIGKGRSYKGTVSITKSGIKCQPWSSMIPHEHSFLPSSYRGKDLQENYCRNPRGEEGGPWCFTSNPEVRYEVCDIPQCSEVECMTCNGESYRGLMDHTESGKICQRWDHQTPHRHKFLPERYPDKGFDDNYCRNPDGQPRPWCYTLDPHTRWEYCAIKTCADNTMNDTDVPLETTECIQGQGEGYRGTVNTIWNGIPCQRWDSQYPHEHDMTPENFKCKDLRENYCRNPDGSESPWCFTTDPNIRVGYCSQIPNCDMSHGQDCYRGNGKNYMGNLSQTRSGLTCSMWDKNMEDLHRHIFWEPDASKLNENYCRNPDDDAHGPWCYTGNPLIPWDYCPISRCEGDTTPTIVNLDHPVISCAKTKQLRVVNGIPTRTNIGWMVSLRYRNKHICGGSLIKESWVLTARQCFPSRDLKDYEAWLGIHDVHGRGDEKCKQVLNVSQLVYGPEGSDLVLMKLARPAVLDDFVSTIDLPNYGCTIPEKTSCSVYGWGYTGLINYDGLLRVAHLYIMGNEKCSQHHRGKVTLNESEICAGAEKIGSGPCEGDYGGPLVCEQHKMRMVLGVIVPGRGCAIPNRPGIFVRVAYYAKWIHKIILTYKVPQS
Method: The wells were washed three times in PBST (PBS containing 0.05% Tween 20), and 100 μl of ULTRA-TMB ELISA (Pierce) were added per well. […] The data were evaluated by calculating the percentage inhibition compared with the maximal signal (control antibody or no antibody added) and the IC₅₀ values were calculated.

CD-80 [1] = target: T3, CD-80 (UniProt P33681 35-288, limits assumed); assay: flow cytometry on cells carrying the target, 2 ug/mL; N-terminal VD
T3 construct: whole, on cells; also called B7-1
T3 sequence (looked up): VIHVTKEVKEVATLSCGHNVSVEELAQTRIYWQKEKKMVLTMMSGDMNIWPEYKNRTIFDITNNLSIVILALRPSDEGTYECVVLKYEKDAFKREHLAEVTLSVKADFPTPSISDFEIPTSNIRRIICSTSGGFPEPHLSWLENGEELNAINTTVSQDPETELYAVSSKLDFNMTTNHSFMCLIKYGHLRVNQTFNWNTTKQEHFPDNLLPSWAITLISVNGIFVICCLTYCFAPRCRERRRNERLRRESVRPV
Method: as §1, §2

RON [2] = target: T4, RON (UniProt Q04912 25-1400, limits assumed); assay: flow cytometry on cells carrying the target, 2 ug/mL; parent antibody
T4 construct: whole, on cells; also called macrophage stimulating protein receptor tyrosine kinase; MSP receptor
Method: as §1, §2

RON [3] = target: T4, RON; assay: flow cytometry on cells carrying the target, 2 ug/mL; N-terminal VD
Method: as §1, §2

CD-19 [4] = target: T5, CD-19 (human, UniProt P15391 20-556); assay: as above
T5 construct: whole, on cells
T5 sequence (looked up): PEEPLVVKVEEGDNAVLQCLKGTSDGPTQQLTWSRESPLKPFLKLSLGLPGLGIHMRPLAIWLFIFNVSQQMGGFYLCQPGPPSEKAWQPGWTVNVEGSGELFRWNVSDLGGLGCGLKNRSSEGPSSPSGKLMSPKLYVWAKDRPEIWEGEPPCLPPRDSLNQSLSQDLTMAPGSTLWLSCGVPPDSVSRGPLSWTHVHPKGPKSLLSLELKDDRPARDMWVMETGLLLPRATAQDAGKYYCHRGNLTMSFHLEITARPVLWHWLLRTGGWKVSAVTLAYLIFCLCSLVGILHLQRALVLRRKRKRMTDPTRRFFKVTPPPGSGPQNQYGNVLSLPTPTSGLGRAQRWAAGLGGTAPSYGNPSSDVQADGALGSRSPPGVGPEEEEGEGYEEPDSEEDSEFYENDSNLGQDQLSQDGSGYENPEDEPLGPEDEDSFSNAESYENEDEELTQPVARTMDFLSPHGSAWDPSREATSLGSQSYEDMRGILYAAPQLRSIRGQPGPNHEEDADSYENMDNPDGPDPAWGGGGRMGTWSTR
Method: as §1, §2

CD-80 [5] = target: T3, CD-80; assay: flow cytometry on cells carrying the target, 2 ug/mL; parent antibody
Method: as §1, §2

IGF1R = target: T6, IGF1R (UniProt P08069 31-1367, limits assumed); assay: as above
T6 construct: whole, on cells; also called insulin-like growth factor receptor
Method: as §1, §2

CD-19 [6] = target: T5, CD-19; assay: as above
Method: as §1, §2

CD-80 [7] = target: T3, CD-80; assay: flow cytometry on cells carrying the target, 2 ug/mL; C-terminal VD
Method: as §1, §2

[8] = target: T7, placental growth factor (PLGF) (UniProt P49763-2 21-149, limits assumed); assay: ligand-receptor binding competition assay, PlGF binding to VEGFR1
T7 construct: also called P1GF
T7 sequence (looked up): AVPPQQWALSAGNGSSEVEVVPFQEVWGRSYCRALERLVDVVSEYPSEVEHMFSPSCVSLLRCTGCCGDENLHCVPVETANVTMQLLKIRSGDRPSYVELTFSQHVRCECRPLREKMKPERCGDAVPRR

NRP1 = target: T8, NRP1 (UniProt O14786 22-923, limits assumed); assay: flow cytometry on cells carrying the target, 2 ug/mL; parent antibody
T8 construct: whole, on cells; also called neuropilin 1
Method: as §1, §2

B1: AB001 (antibody, human IgG1, kappa, V domains shown)
VH: QVQLQQPGAELVKPGASVKMSCKASGYTFTSYNMHWVKQTPGRGLEWIGAIYPGNGDTSYNQKFKGKATLTADKSSSTAYMQLSSLTSEDSAVYYCARSTYYGGDWYFNVWGAGTTVTVSA
VL: QIVLSQSPAILSPSPGEKVTMTCRASSSVSYIHWFQQKPGSSPKPWIYATSNLASGVPVRFSGSGSGTSYSLTISRVEAEDAATYYCQQWTSNPPTFGGGTKLEIKR
notes: Parent antibody; also called anti-CD-20 parent antibody
FACS Geometric Mean (CD-20): 95.8

B2: AB012 (anti-HGF (seq. 1) parent antibody) (antibody, human IgG1, kappa, V domains shown)
VH: QVQLVESGGGLVKPGGSLRLSCAASGFTFSDYYMSWIRQAPGKGLEWVSYISSSGSTIYYADSVKGRFTISRDNAKNSLYLQMNSLRAEDTAVYYCARDEYNSGWYVLFDYWGQGTLVTVSS
VL: DIQMTQSPSSVSASVGDRVTITCRASQGISSWLAWYQQKPGKAPNLLIYEASSLQSGVPSRFGGSGSGTDFTLTISSLQPEDFATYYCQQANGFPWTFGQGTKVEIKR
notes: also called AB012VH/AB012VL
IC50 (recombinant human HGF): 0.18 nM

B3: DVD006 (bispecific antibody, human IgG1, kappa)
heavy: not shown
light: ESALTQPPSVSGAPGQKVTISCTGSTSNIGGYDLHWYQQLPGTAPKLLIYDINKRPSGISDRFSGSKSGTAASLAITGLQTEDEADYYCQSYDSSLNAQVFGGGTRLTVLGQPKAAPQIVLSQSPAILSPSPGEKVTMTCRASSSVSYIHWFQQKPGSSPKPWIYATSNLASGVPVRFSGSGSGTSYSLTISRVEAEDAATYYCQQWTSNPPTFGGGTKLEIKRTVAAPSVFIFPPSDEQLKSGTASVVCLLNNFYPREAKVQWKVDNALQSGNSQESVTEQDSKDSTYSLSSTLTLSKADYEKHKVYACEVTHQGLSSPVTKSFNRGEC
notes: DVD-Ig; outer AB007 (CD-80), inner AB001 (CD-20); also called CD-80 and CD-20 DVD-Ig
FACS Geometric Mean N-terminal (CD-80 [1]): 70.7

B4: AB005 (antibody, human IgG1, kappa, V domains shown)
VH: EVQLVQSGGGLVKPGGSLRLSCAASGFTFSSYAMHWVRQAPGKGLEWVAVISYDGSNKYYADSVKGRFTISRDNSKNTLYLQMNSLRAEDTAVYYCARFSGWPNNYYYYGMDVWGQGTTVTVSS
VL: DVVMTQSPLSLPVTPGEPASISCRSSQSLLHSNGFNYVDWYLQKPGQSPHLLIYFGSYRASGVPDRFSGSGSGTDFTLKISRVEAEDVGVYYCMQALQTPPWTFGQGTKVEIRR
notes: Parent antibody
FACS Geometric Mean (RON [2]): 54.5

B5: DVD033 (bispecific antibody, human IgG1, kappa)
heavy: not shown
light: DVVMTQSPLSLPVTPGEPASISCRSSQSLLHSNGFNYVDWYLQKPGQSPHLLIYFGSYRASGVPDRFSGSGSGTDFTLKISRVEAEDVGVYYCMQALQTPPWTFGQGTKVEIRRTVAAPDIQMTQSPSSVSASVGDRVTITCRASQGISSWLAWYQQKPGKAPNLLIYEASSLQSGVPSRFGGSGSGTDFTLTISSLQPEDFATYYCQQANGFPWTFGQGTKVEIKRTVAAPSVFIFPPSDEQLKSGTASVVCLLNNFYPREAKVQWKVDNALQSGNSQESVTEQDSKDSTYSLSSTLTLSKADYEKHKVYACEVTHQGLSSPVTKSFNRGEC
notes: DVD-Ig; outer AB005 (RON), inner AB012 (HGF); also called RON and HGF DVD-Ig
FACS Geometric Mean N-terminal (RON [3]): 6.46

B6: DVD002 (bispecific antibody, human IgG1, kappa)
heavy: not shown
light: DILLTQTPASLAVSLGQRATISCKASQSVDYDGDSYLNWYQQIPGQPPKLLIYDASNLVSGIPPRFSGSGSGTDFTLNIHPVEKVDAATYHCQQSTEDPWTFGGGTKLEIKRTVAAPQIVLSQSPAILSPSPGEKVTMTCRASSSVSYIHWFQQKPGSSPKPWIYATSNLASGVPVRFSGSGSGTSYSLTISRVEAEDAATYYCQQWTSNPPTFGGGTKLEIKRTVAAPSVFIFPPSDEQLKSGTASVVCLLNNFYPREAKVQWKVDNALQSGNSQESVTEQDSKDSTYSLSSTLTLSKADYEKHKVYACEVTHQGLSSPVTKSFNRGEC
notes: DVD-Ig; outer AB006 (CD-19), inner AB001 (CD-20); also called CD-19 and CD-20 DVD-Ig
FACS Geometric Mean N-terminal (CD-19 [4]): 1100

B7: AB007 (antibody, human IgG1, lambda, V domains shown)
VH: QVQLQESGPGLVKPSETLSLTCAVSGGSISGGYGWGWIRQPPGKGLEWIGSFYSSSGNTYYNPSLKSQVTISTDTSKNQFSLKLNSMTAADTAVYYCVRDRLFSVVGMVYNNWFDVWGPGVLVTVSS
VL: ESALTQPPSVSGAPGQKVTISCTGSTSNIGGYDLHWYQQLPGTAPKLLIYDINKRPSGISDRFSGSKSGTAASLAITGLQTEDEADYYCQSYDSSLNAQVFGGGTRLTVLG
notes: Parent antibody; also called anti-CD-80 parent antibody
FACS Geometric Mean (CD-80 [5]): 25.4

B8: AB011 (antibody, human IgG1, kappa, V domains shown)
VH: EVQLLESGGGLVQPGGSLRLSCTASGFTFSSYAMNWVRQAPGKGLEWVSAISGSGGTTFYADSVKGRFTISRDNSRTTLYLQMNSLRAEDTAVYYCAKDLGWSDSYYYYYGMDVWGQGTTVTVSS
VL: DIQMTQFPSSLSASVGDRVTITCRASQGIRNDLGWYQQKPGKAPKRLIYAASRLHRGVPSRFSGSGSGTEFTLTISSLQPEDFATYYCLQHNSYPCSFGQGTKLEIKR
notes: Parent antibody
FACS Geometric Mean (IGF1R): 1680

B9: AB006 (antibody, human IgG1, kappa, V domains shown)
VH: QVQLQQSGAELVRPGSSVKISCKASGYAFSSYWMNWVKQRPGQGLEWIGQIWPGDGDTNYNGKFKGKATLTADESSSTAYMQLSSLASEDSAVYFCARRETTTVGRYYYAMDYWGQGTSVTVSS
VL: DILLTQTPASLAVSLGQRATISCKASQSVDYDGDSYLNWYQQIPGQPPKLLIYDASNLVSGIPPRFSGSGSGTDFTLNIHPVEKVDAATYHCQQSTEDPWTFGGGTKLEIKR
notes: Parent antibody
FACS Geometric Mean (CD-19 [6]): 979

B10: DVD005 (bispecific antibody, human IgG1, lambda)
heavy: not shown
light: QIVLSQSPAILSPSPGEKVTMTCRASSSVSYIHWFQQKPGSSPKPWIYATSNLASGVPVRFSGSGSGTSYSLTISRVEAEDAATYYCQQWTSNPPTFGGGTKLEIKRTVAAPESALTQPPSVSGAPGQKVTISCTGSTSNIGGYDLHWYQQLPGTAPKLLIYDINKRPSGISDRFSGSKSGTAASLAITGLQTEDEADYYCQSYDSSLNAQVFGGGTRLTVLGQPKAAPSVTLFPPSSEELQANKATLVCLISDFYPGAVTVAWKADSSPVKAGVETTTPSKQSNNKYAASSYLSLTPEQWKSHRSYSCQVTHEGSTVEKTVAPTECS
notes: DVD-Ig; outer AB001 (CD-20), inner AB007 (CD-80); also called CD-20 and CD-80 DVD-Ig
FACS Geometric Mean C-terminal (CD-80 [7]): 6

B11: AB047 (antibody, human IgG1, kappa, V domains shown)
VH: QVQLQQSGAELVKPGASVKISCKASGYTFTDYYINWVKLAPGQGLEWIGWIYPGSGNTKYNEKFKGKATLTIDTSSSTAYMQLSSLTSEDTAVYFCVRDSPFFDYWGQGTLLTVSS
VL: DIVLTQSPDSLAVSLGERVTMNCKSSQSLLNSGMRKSFLAWYQQKPGQSPKLLIYWASTRESGVPDRFTGSGSGTDFTLTISSVQAEDVAVYYCKQSYHLFTFGSGTKLEIKR
notes: Parent anti-PlGF antibody; also called AB047VH
IC50 [8]: 3.07 nM

B12: AB016 (antibody, human IgG1, kappa, V domains shown)
VH: EVQLVESGGGLVQPGGSLRLSCAASGFSFSSEPISWVRQAPGKGLEWVSSITGKNGYTYYADSVKGRFTISADTSKNTAYLQMNSLRAEDTAVYYCARWGKKVYGMDVWGQGTLVTVSS
VL: DIQMTQSPSSLSASVGDRVTITCRASQSISSYLAWYQQKPGKAPKLLIYGASSRASGVPSRFSGSGSGTDFTLTISSLQPEDFATYYCQQYMSVPITFGQGTKVEIKR
notes: Parent antibody
FACS Geometric Mean (NRP1): 338
